Reference: patent US20220105179A1 (published 2022)

Biological target: NEUFcε (Arthrobacter urefaciens;mouse, UniProt P06336 99-421)
Experiment: BLI

B1: hFcεRIα (receptor)
chain: VPQKPKVSLNPPWNRIFKGENVTLTCNGNNFFEVSSTKWFHNGSLSEETNSSLNIVNAKFEDSGEYKCQHQQVNESEPVYLEVFSDWLLLQASAEVVMEGQPLFLRCHGWRNWDVYKVIYYKDGEALKYWYENHNISITNATVEDSGTYYCTGKVWQLDYESEPLNITVIKAPREKYWLQ
Binder B1 has a Kd of under 1 pM.
